Assay results published in the DeepSol protein solubility set.

Assay: soluble on expression in E. coli; label from the status in PepcDB or PDB records

Sequence	soluble on expression in E. coli
MVDVIALGEPLIQFNSFNPGPLRFVNYFEKHVAGSELNFCIAVVRNHLSCSLIARVGNDEFGKNIIEYSRAQGIDTSHIKVDNESFTGIYFIQRGYPIPMKSELVYYRKGSAGSRLSPEDINENYVRNSRLVHSTGITLAISDNAKEAVIKAFELAKSRSLDTNIRPKLWSSLEKAKETILSILKKYDIEVLITDPDDTKILLDVTDPDEAYRKYKELGVKVLLYKLGSKGAIAYKDNVKAFKDAYKVPVEDPTGAGDAMAGTFVSLYLQGKDIEYSLAHGIAASTLVITVRGDNELTPTLEDAERFLNEFKT	soluble
MVEEAERIALISHTAPDGDSVGSSIGFAAMLREKGKSHISVIVPDDIPQYLYCIPGANKVIVHETHPSEAEKALAEADLVFCMDFNAPHRVAGLQSALESSSAPKVLIDHHLYPADIFTLSFSYPPLSSTSELVLRLAKAIGMESYLTQDAATALMTGILTDTGVFSYSSSDPDLYLLVADLMRAGADKDTIIRNTFQQNSEGKMRMQGYVLYEKMTLLPEMGVAYFTLSAEELVRFHNRTGDTDGLANLPLDIAGIEAVCFLREDKNQIKLSFRSTGNYPVNTLAENFGGGGHKNAAGGEFQGSLQEATEKLLKIWKDFNPKNYNNKNQQLEHHHHHH	soluble
MVEIYLFVNPLGGVCLEIEKEIIQLSVNDKKKIQLRFIPLLNMKTINEFLSRQHIPINDIKRRNRIFEDLYSAALDYKAAQLQGRKKGRQLLIGLQKAVAEDGLAYSPELSEELLLAAGGDIDMYRKDRQSDFVKESFQTDQKVAREMGIKQHPTAVVYNYTCENDFGILVENFENMDEIKQLCRVHPHNEPLLNQGDATFEFKRRSNYHFPNGHLHLL	not soluble
MVEKEEAGGGISEEEAAQYDRQIRLWGLEAQKRLRASRVLLVGLKGLGAEIAKNLILAGVKGLTMLDHEQVTPEDPGAQFLIRTGSVGRNRAEASLERAQNLNPMVDVKVDTEDIEKKPESFFTQFDAVCLTCCSRDVIVKVDQICHKNSIKFFTGDVFGYHGYTFANLGEHEFVEEKTKVAKVSQGVEDGPDTKRAKLDSSETTMVKKKVVFCPVKEALEVDWSSEKAKAALKRTTSDYFLLQVLLKFRTDKGRDPSSDTYEEDSELLLQIRNDVLDSLGISPDLLPEDFVRYCFSEMAPVCAVVGGILAQEIVKALSQRDPPHNNFFFFDGMKGNGIVECLGPK	soluble
MVELKVPMFPESVADGTLAQWNKNEGDFVNEGDILAEIETDKVVLEVPATSSGVLKGIKKHAGDTVLSEESLAIIDTAVSTSEPNQQTTNQGNASEATATGQEIDIKAPVFPESVADGTISEWHKKEGEAVSEGDILAEIETDKVVLEVPATSNGVLTKILKTAGETVLSAELIAKITAGGATATTKSEASVGVSQANNDPHLVPSARKAFNASGLDTAANIEGTGKKGRITSEDVKKAVASVNKPQQQTVVINQGARYEKRVKMTRLRQTIANRLVEVQHTNAILTTFNEVDMSAVMELRNKYKDMFVKEHDTKLGFMSFFIKAATEALKKFPDVNASIDGDEIVYHNYFDIGIAVGTDRGLVVPVLRDTDTKSLAELEADVLDKAIKGRDGKLSLEDMQGGTFTITNGGTYGSMLSTPIINSPQSAILGMHNIVERPVVVKGEIKIRPIMYLALSYDHRIIDGGTSVRFLKMIKELIEDPNRILLQV	not soluble
MVENSELRKAGLKVTLPRVKILQMLDSAEQRHMSAEDVYKALMEAGEDVGLATVYRVLTQFEAAGLVVRHNFDGGHAVFELADSGHHDHMVCVDTGEVIEFMDAEIEKRQKEIVRERGFELVDHNLVLYVRKKK	not soluble
MVERKRWSEEFSEWFNEVIEEAGILDKRYPVKGMNVWLPYGLKIMRNIEKFIHEEMERTGHQEVLFPALIPETEFKKEAEHIAGFEGEVFWVTHAGHEPLDVRLVLRPTSETAMYSMFALWIRSHADLPFKVYQIVNVYRYETKHTRPLIRVREISRFFEAHTAHADFEDAERQIKEDLEIFDNLMRKLALAYIISKRPEWDKFPGAFYSLGAEVVMPDGRTLQIGTMHNYKQNFSKAYNILYEKEDGTHDYVHQTTFGMSERLLAAVIAIHGDDRGMVLPPTIAPIQVVIVPIPKKGSEEEVYSYAKGIEEELRDAGIRVYLDLRDKRPGWKFYDWELKGVPVRVEVGPIDVQNSTVVLARRDKLEKITVKREELVDKVRELFEDIMEFLYERANEWLESHIKRVDTLEEAKAVFEDRRGIVEIPWCGEESCGLKMEEELEAKMLGIPYPEEKAKAPEGSKCPVCGREAKFIARFARTY	soluble
MVFCGDDVATGVRDAITYCYRCKGRKVTLSDHEADDDNKPIGDFDYDHEVVVFEIRSRAMEKLRKKRRTGMEGLTYKFVKEYDIENEFCSVRSSFSECCMSDISIEGYMTAKTEFSRSSSLKGLELENQWKMHYVNEIKKGSVIQEFCHCQGWPFGLGRKAALLPPLPKSPAESWSWRKPTRVTPVPFV	soluble
MVFRKSLLKLAVFALGACVAFSNANAAEGKLESIKSKGQLIVGVKNDVPHYALLDQATGEIKGFEVDVAKLLAKSILGDDKKIKLVAVNAKTRGPLLDNGSVDAVIATFTITPERKRIYNFSEPYYQDAIGLLVLKEKKYKSLADMKGANIGVAQAATTKKAIGEAAKKIGIDVKFSEFPDYPSIKAALDAKRVDAFSVDKSILLGYVDDKSEILPDSFEPQSYGIVTKKDDPAFAKYVDDFVKEHKNEIDALAKKWGL	soluble
MVHFIFIALRSMRFMRRLVRNLQYLLLPITSSLLFI	soluble
MVHKSVESPAFSASIEDYALIGDQQSAALVARDGSIDWLCLPRFDSPACFAALLGDEHNGKWRIAPKGAGPCTRRAYRTDSLVLDSEWDTPEGTLRVTDLMPQRDSAPDLVRIVEGLRGRVTVRSAIRLRFDYGLEHHHHHH	soluble
MVHVSGTKVKVVKKKLTKFKRHESDRYRRVAPSWRKPKGIDNRVRRRFRGMRAMPTIGHGSDRRTRFVLPNGYKKVLVQNVKDLDMLLMQSYKYIGEIGHGVSAKSRKGIVERAAQLNIKLTNGNARLRTEESE	not soluble
MVITLPKLKYALNALSPHISEETLNFHYNKHHAGYVNKLNTLIKDTPFAEKSLLDIVKESSGAIFNNAAQIWNHTFYWDSMGPDCGGEPHGEIKEKIQEDFGSFNNFKEQFSNILCGHFGSGWGWLALNNNNKLVILQTHDAGNPIKDNTGIPILTCDIWEHAYYIDYRNDRASYVKAWWNLVNWNFANENLKKAMQKLEHHHHHH	soluble
MVKESGMASLLLENPYYGYRKPKDQLRSSLKNVSDLFVMGGALILESAALLHWLERDGFWPLGMTGISMGGHMASLAVTNWPKPIPLIPCLSWTTASSVFTTGVLSRAVNWRELEKQYATHTVYEEEIISMLEYCGTDSFRMGQEFVKNAPGSFDGLDLTQELLQSGQQVALRSSYSGRPASDQDSSVLMGRRERDGLDQMLSAVSSSAPHLDMLHAKSIACGSGQRQSLQRESLCFMKGVMDECTHIANFSVPVDPSLIIIVQAKEDAYVPRTGVRSLQEIWPGCEVRYLNGGHISAYLFKQGLFRQAIYDAYDRFLHKYSSL	soluble
MVKLKVEDLEMDKIAPLAPEVSLKMAWNIMRDKNLKSIPVADGNNHLLGMLSTSNITATYMDIWDSNILAKSATSLDNILDTLSAEAQNINEERKVFPGKVVVAAMQAESLKEFISEGDIAIAGDRAEIQAELIELKVSLLIVTGGHTPSKEIIELAKKNNITVITTPHDSFTASRLIVQSLPVDYVMTKDNLVAVSTDDLVEDVKVTMSETRYSNYPVIDENNKVVGSIARFHLISTHKKKLEHHHHHHHH	soluble
MVKLRDWQEKLKDKVIEGLRNNFLVALNAPTGSGKTLFSLLVSLEVKPKVLFVVRTHNEFYPIYRDLTKIREKRNITFSFLVGKPSSCLYAEKGAESEDIPCKYCELKGSIVEVKTDDSPLSLVKKLKKDGLQDKFCPYYSLLNSLYKADVIALTYPYFFIDRYREFIDIDLREYMIVIDEAHNLDKVNELEERSLSEITIQMAIKQSKSEESRRILSKLLNQLREVVLPDEKYIKVENVPKLSKEELEILADDYEDIRKDSLKQGKVNKIHIGSILRFFSLLSIGSFIPFSYSKRLVIKNPEISYYLNLLNDNELSIILMSGTLPPREYMEKVWGIKRNMLYLDVEREIQKRVSGSYECYIGVDVTSKYDMRSDNMWKRYADYLLKIYFQAKANVLVVFPSYEIMDRVMSRISLPKYVESEDSSVEDLYSAISANNKVLIGSVGKGKLAEGIELRNNDRSLISDVVIVGIPYPPPDDYLKILAQRVSLKMNRENEEFLFKIPALVTIKQAIGRAIRDVNDKCNVWLLDKRFESLYWKKNLKCLNANKMKL	soluble
MVKTTEVVSEVSKVAGVRPWAGIFVVEIQEDILADEFTFEALMRTLPLASQARILNKKSFHDRCSNLCSQLLQLFGCSIVTGLNFQELKFDKGSFGKPFLDNNRFLPFSMTIGEQYVAMFLVKCVSTDEYQDVGIDIASPCNYGGREELELFKEVFSEREFNGLLKASDPCTIFTYLWSLKESYTKFTGTGLNTDLSLIDFGAISFFPAEGASMCITLDEVPLIFHSQWFNNEIVTICMPKSISDKINTNRPKLYNISLSTLIDYFIENDGL	soluble
MVKVTIIIPTYNPREHLIDTLLSVRTQNFTNIEVLIVDDGSTVDVSTLIKPYITADNIRCIRRKNGGTAAARNTGITNSTGEYIAFLDHDDIWLPDKVALQVEALDRNLSCGLTYCNFQILDEQTGSLINPHRQGEGGCMFEKFLYRNYITTASQIMVRRSCFDQLGLFDESLPIVDDYDFYLRLSRCYDIHYDPRVLTHWRSHQFNTSKNYEKTQLGRIKVKETALNRWALSDNQKKILFKGLRRDYYELAYYYLNSEKYSDARNYFRKAVPYRPVKSIVYYLSTCVPGLSYLNMKALKNDFLKLEHHHHHH	not soluble
MVKVVVDASNVAYSTKNENSQPQMSNILAAVKSLEESGDEFVIIADASLRHDIDDKEKFEKLLESENVEEVPAGNDADHFILNIAHNEKAKILSNDKFRDYAAEFKNINSMRIPFVIENGRVTFGKPKSPKKDKNILQHISDEIIKELNFKRWEVYTGKEGLEISPLNIAKQAIIRIDNDNDTSSKLEKVFSKIPMFNKIVDMVDDVEVAAPYVIFVLVHPKDYKLAVKNAGNISVTVADRLRLEKKPLIAVRNDLFTRPGTFELNIMLADEVTEHAPYNVLVRVSTHDEVFIKKNSRNIASTIAGRLGSWKFPFVSVKPDMLLEKPGDFEIELEKGGSLDGLEHHHHHH	soluble
MVLARREALDPRYQYDAALAAAKKGEAAIAVPAGVMIAGYWPIRSEIDPRPLLSAFRAKGARLCLPVVLDAETIAFREFLPDAELVPTGFGTMGPDEHAPLVDPAIMLMPLAGFDRLGHRLGYGAGHYDRALARFAERGLQPLLIGMAFDCQEVDYVPNEPHDIALHQILTESGLRSRAMDLEHHHHHH	not soluble
MVLETPVCSPIDKESSSDDVQLNKPPKKKRKLDVVYPPRDNTSSSSDVKPKVPGYCGVKAIGCNRSDELLAEVALHSYNSQTGTNLELMTVTQVMLQSVAHINYHMILDAFDPANNSLSSIEICLWDAAVKNNEKLRLVTTFCSLEGSGDKGSQWDPNGVDVLYTGVMPKWLDDGALSGSEKLHYYEVNDSDLQENKWLHLYAQVGAYSKWDLGMVKHFPLEIKKVVVQTMEDDIESNLKLKSSNAIFYITFTTSGGVECACIIRQTRNGRPQHMCLEINNVEMDK	soluble
